According to the DeepSol protein solubility set:

assay: soluble on expression in E. coli; label from the status in PepcDB or PDB records

Sequence | soluble on expression in E. coli
GMDTPANKPCIICVAITGSVPTKADNPAVPITVSEQVESTQEAFEAGAAIAHCHVRNDDGTPSSDPDRFARLTEGLHTHCPGMIVQFSTGGRSGAGQARGGMLPLKPDMASLSVGSNNFPSRVYENPPDLVDWLAAQMRSYRVTPEIEAFDLSHILRAIDMHGRGLLYGKLYVQFVMGVKNAMPADREVFDFYVRMMRTRAPQAEWCAAGIGANQLTVNEWAIAAGGHTRTGLEDNIRLDRQTLAPSNAALVRRSVELCDKYQRPVASWQQAREILGLPAAARN | soluble
DSKKIVGVFYKANEYATKNPNFLGCVENALGIRDWLESQGHQYIVTDDKEGPDCELEKHIPDLHVLISTPFHPAYVTAERIKKAKNLKLLLTAGIGSDHIDLQAAAAAGLTVAEVTGSNVVSVAEDELMRILILMRNFVPGYNQVVKGEWNVAGIAYRAYDLEGKTIGTVGAGRIGKLLLQRLKPFGCNLLYHDRLQMAPELEKETGAKFVEDLNEMLPKCDVIVINMPLTEKTRGMFNKELIGKLKKGVLIVNNARGAIMERQAVVDAVESGHIGGYSGDVWDPQPAPKDHPWRYMPNQAMTPHTSGTTIDAQLRYAAGTKDMLERYFKGEDFPTENYIVKDGELAPQYR | soluble
PEYSLFVGDLTPDVDDGMLYEFFVKVYPSCRGGKVVLDQTGVSKGYGFVKFTDELEQKRALTECQGAVGLGSKPVRLSVAIPKASRVKPVE | soluble
SSKKYKLSEIHHLHPEYVRVSEHFKASMKNFKIEKIKKIENSELLDKFTWKKSQMKEEGKLLFYATSRAYVESICSNNFDSFLHETHENKYGKGIYFAKDAIYSHKNCPYDAKNVVMFVAQVLVGKFIEGNITYTSPPPQFDSCVDTRSNPSVFVIFQKDQVYPQYVIEYTED | soluble
MAKTIAYDEEARRGLERGLNALADAVKVTLGPKGRNVVLEKKWGAPTITNDGVSIAKEIELEDPYEKIGAELVKEVAKKTDDVAGDGTTTATVLAQALVREGLRNVAAGANPLGLKRGIEKAVEKVTETLLKGAKEVETKEQIAATAAISAGDQSIGDLIAEAMDKVGNEGVITVEESNTFGLQLELTEGMRFDKGYISGYFVTDPERQEAVLEDPYILLVSSKVSTVKDLLPLLEKVIGAGKPLLIIAEDVEGEALSTLVVNKIRGTFKSVAVKAPGFGDRRKAMLQDMAILTGGQVISEEVGLTLENADLSLLGKARKVVVTKDETTIVEGAGDTDAIAGRVAQIRQEIENSDSDYDREKLQERLAKLAGGVAVIKAGAATEVELKERKHRIEDAVRNAKAAVEEGIVAGGGVTLLQAAPTLDELKLEGDEATGANIVKVALEAPLKQIAFNSGLEPGVVAEKVRNLPAGHGLNAQTGVYEDLLAAGVADPVKVTRSALQNAASIAGLFLTTEAVVADKPEKEKASVPGGGDMGGMDF | soluble
MSESSEWLIYRGAGEPHDGVDRLPDPPPWRDFTSRDAAGSGDGSEDRRLGAHRHLAELHRPGAEELEMINAALYLRRPLLVTGSPGAGKSTLAHSVAYELGLGNVLRWSIVSRSELQDGLYHYDAIARLQDVQIAAQADNGPGSGTPGAVDGIGGYIRLGPLGTALLPSDKPRVLLIDELDKSDIDLPNDLLNVLEEGEFAIPELERVADRLPDRTAEVLTADGVKVPVRDGRVRCRAFPFVVLTSNGERDFPAPLMRRCIHLELGRPDHNRLATFVRAHLGDEAARAGDDLVTRFLERSRSELLATDQLLNAIYLTDAAATPSRDRLADLLIQRLDRPRLEHHHHHH | soluble
MGHHHHHHSHMKANLSLLRRPGEKTYTQRCRLFVGNLPADITEDEFKRLFAKYGEPGEVFINKGKGFGFIKLESRALAEIAKAELDDTPMRGRQLRVRFATHAAALSVRNLSPYVSNELLEEAFSQFGPIERAVVIVDDRGRSTGKGIVEFASKPAARKAFERCSEGVFLLTTTPRPVIVEPLEQLDDEDGLPEKLAQKNPMYQKE | soluble
MGHVLIEMMGIKKGDFVLDVGCGTGRQALNVAGIIGPAGKLTGIDPSSYRIELARKKFEGDSSGNVRFLVRQAENLQDIPDNSINHAYFCSSFHWVDDKKTALNEIFRVLRPGGKVGMTTLDRNSPNTMKALIDPILAKFGIERRHEWHRGMKKVTAPELHDLLSGAGFTSISIEPRAVPRKYNSPEEFLQHPEEKDSSRGILRDISNETLEKLRQEITEEFRKAQTPEDIGFGNITLFAIATKAQEGLEHHHHHH | soluble
MSTETHYKRQLFVILKLFIIMSFMTKCPKCPTYESKKTTNVYRHLREVHNASEAEVDQFRIQRKEGKSLTTKGSGAWKCPVCELVIPTEKGLKNHMNQKHRKKPIDPSTITLATTSPTMVSPPPKRIQLPKSTEKSLVSSVATVRAQPTQKPGGRYKCPVENCTFFKTRKELALHFSEKHDPGSELETMSFETETEFKIWLTCRQEETCSSMQISLSSHDGNRITHFRLCRHEGGQLSLGATKKGATFELSLGATN | not soluble
MSYRYMRMILMFDMPTDTAEERKAYRKFRKFLLSEGFIMHQFSIYSKLLLNNTANNAMIGRLREHNPNKGNITLLTVTEKQFARMIYLHGERNNCIANSDERLVFLGEAFDES | not soluble
MVCFGVGSGGTVTGVGRYLRAQKQNIGVYPVEPFESSVLSGFPRGPHKIHGIGAGLIPGNVDRSLFTEVLRVKSEDAMKMARRLADEEAILGEISSGANVVAAVELACRPENIGKLIVTTVNSFAERYFSTELYSTLLSEVSKLPISTDEQAVDIAKKYLGL | not soluble
MGSDKIHHHHHHLPENAASLGCGAWKGDTVSIEAGGMNRRVGEIVGQVLARLRPKAKSLIITVYGDAISHHGGSAWLGSVINLVEPLGLNERIVRTSVFRLSKEAWLSSMQIGRRSYYRLTEMGRRRFEAAHNRIYHYNGKPWDGRWTLAVTNIDGMDAERRDSLRRDLGWLGFGQLASGVMVHPDPDQSAVRQALAEAGVQDRAVMMTAAAEDWVTPEALRDLIHTCWDLERLASDYNEFLDTFRPLWQVLSGNGDLDPQMCFVVRTLLMHGYRRALLRDPMLPDELLPANWPGTSARVLCRNLYRLVQAAAETHVMGMLETAEGPVPEAHPAYYTRFGGLQSAD | not soluble
MSSDRIVITGVAINTPIGDTLDLVGNNLLSGKSAIGYWRNFDTSNIYSKIGGQIPEYDIEGKLHAFSNRIPDIVLSRAEKVFKQTTKGVQLSVLMAMEAWLDAGLFEHIIDPFDCGIICGGHNLSDKYLLDQQKIFSDEPEFIDAFSGLNSLDTDHSSSVAQVLNTKGFAYLVGGTCATGNIAIQTAINAIKVDKKQVVAVVCPMASFHPMMLHSLTILEAICYSQYQDTPTKASRPYDINRSGFLPSEGGAVLIFEQAEHAKNRGAKIYAELLGASVNSDANHLGDPSHEGQVRVIQDVLKKCNISPEQVDYVSAHATSTKLGDIVELKSIKRVFGSHAEKLIINAPKSLLGHTMWASGVVEAAIAIWQMRQGEFHQSHNIETLDPAVELNVCASGNVKKEVNIFLNNSFGMGGINSASLFSRYHG | not soluble
MGHHHHHHSHGNLVTELIYVHSKLLIADDNTVIIGSANINDRSMLGKRDSEMAVIVQDTETVPSVMDGKEYQAGRFARGLRLQCFRVVLGYLDDPSEDIQDPVSDKFFKEVWVSTAARNATIYDKVFRCLPNDEVHNLIQLRDFINKPVLAKEDPIRAEEELKKIRGFLVQFPFYFLSEESLLPSVGTKEAIVPMEVWT | not soluble
MATQRAHRAETPAHPNRLWIWEKHVYLDEFRRSWLPVVIKSNEKFQVILRQEDVTLGEAMSPSQLVPYELPLMWQLYPKDRYRSADSMYWQILYHIKFRDVEDMLLELIDSESNDE | soluble
MRALRLVTSESVTEGHPDKLADRISDAILDALIAQDKKARVAAETLVTTGLVFVAGEITTEGYVDIPNLVRKTVREVGYTRAKYGFDADTCAVLTAIDEQSPDIAGGVNLSYEWRVLKSTDPLDRVGAGDQGLMFGYATDETPELMPLPITLAHRLTMRLAEVRKTGLLPYLRPDGKAQVTVVYEGDKPLYVKTVVVSAQHSPEVEQEQLREDLIREVVRQAIPPEYLKDGETEYLINPSGRFILGGPHADTGLTGRKIIVDTYGGAVPHGGGAFSGKDPTKVDRSASYYARYMAKNIVAAGLARRALVELAYAIGKARPVSLRVETFGTGVLPDEKLTEIAKKVFDPRPLAIIEELDLLRPIYTPTSAYGHFGRPGFPWEETDRVEALRREAGL | soluble
MAHHHHHHMQRNEVESLEGLVLLVQLRVLVAHHNAVTSLRPIAVLPALSFIDARSNKIEDVNPMEDLPCDSLKYLALLDNPCCNGDRSVDREQIMKACPKLAMLDDVPRDPSAEKVTGSEEEENSDEEDGCKRWHAVSETPTGCSKGVSSRIHLYRSLKMCEPLPVSVPSLEPIPVTSQDIDTNRVTTTTDRLCEQLRHRSSAIRRMAGHHALGQTEVSDPVWDFGNHVENDGDSEHRSNGRRRLDSPESTLSLTLPPELEQERATKARLYDDIRFALQADDRRLRQLAGVVWDDVDKVLSTRQALVGHRRHRMHTAHQQPSDAYAKSLEILKHENRVANLDKYRKQENANAPQ | not soluble
MNISYIPEHIEQLTIMNVPEYYKINDNHAFIVRSKAETDFWLKTHYGFEVMNGHVFYNEMMTDFQAEVQLRMNPNSKFDQAGLFVMISENCWLKTSLEYIPEGPSHLGAVVTNNGYSDWSTQDYPTEAAKQQLRFRIIRKRGDYTIYVKKRHQWEQIRIAHLMEDIGNEPIKIGFYTCSPSKNKGFETEFLHFTIEELLEHHHHHH | soluble
MSLVKLKNLTLYLWAVFVVGCTSVPEVSTQAQNPANNKTVSLAELNWQELSLPADINFEFNEKSQVLLDNNSTGPVASFVIPTDRGPVDMVLTSHVGKELTLYEPNVLVTNSKGGVFYHIKSNEFKYIPARLLDGDRVQKQFTIVPQIGADQVNVLIYTTSEDLKGSTTVIHPAKAFAIGTGTQPPMIPDLTAVHSEYGQLNLTVTAVSLTNRTPIRPAIDYVPEIEAKSAYYLNSIQNSVEQGDIDHAMTLVSEAEKLGIPSARATFINAVQSRNEHKEGHHHHHH | soluble
MGSDKIHHHHHHMTIDTNFSKWFLQPSKESAQMYETVMQRALTLVVEHMKEAANPFSGADRHSIQQAVKDAAFISYSGEPIDGVIRAIQEGVMKHSLWISHPSAMAHLHCPPLLPSLVAEVVINALNQSMDSWDQSPSATYVETELLRFFTRSIGYSDLGDGVFTSGGTQSNYMGMLLARNKICESAFATNVQEEGLPVDARKLRILCSQEAHFSVQKSAAQLGLGANAVVQVATNERQQLCVNETRQTINELRLKGLIPFMIVATAGTTDFGSIDKLREIAELAREQELWLHVDAAYGGALLFSRQYGHLLNGLHLADSITIDFHKFYYQSISCGAFFVKDRHEFERIRFHADYLNPEEDKEADIINLVEKSVQTTKRFDALKLLVTFKWMGTEQFGQMIDYTIQLAKETGELLRRYGFDVLNDPELNAVVFRYVPECHRDDQSYVDQLNLTLQRHFYERGDLIMAKTKQRGHVYLKFTMLNPLNTIENMKTQIQKVKKAGIEFEKTQGAIRHEHVIHS | not soluble
MAHHHHHHMEYQGSPQQEEGDAALAKRLHEELNRSEASGHQEPSDQTGGRRQVECPMCSSVSVVVGAADGVQQVCERCKATTHGGFASGEDNENYSMQKLLLCNICQSYNRVPKGTFDAILCGACGNQLKAGGSVTENLSPEDTRVRTQEIRVRCPKCSSINTVEANTDALSVRFECGSCRYANEVFF | soluble
MDFDNFPIEQLSHLISFDIEWTETSVADAIKIKDIILRSPHFESASILSHCVNKIKPEVLKVFHPNYIATDRDYNEMLELRNDYFRSIVYAGGSSIDIYNVNLEDPDDFE | not soluble
